Results taken from publication PMC10907724, “Optineurin provides a mitophagy contact site for TBK1 activation” (The EMBO Journal, 2024).
One block for each binder: values may come before it.

Experiments:
[1] = biological target: T1, OPTN (26–196 aa)-EGFP with E50K (UniProt Q96CV9 26-196, E50K); experiment: pull-down; recombinant GST-TBK1 (677–729 aa), OPTN (26–196 aa)-EGFP or EGFP alone, and monobodies, 4.5 μM each, with glutathione Sepharose in 50 mM Tris–HCl pH 7.5, 120 mM NaCl, 1 mM TCEP, 10% glycerol, 30 min at room temperature; washes with 0.1% Triton X-100; CBB staining; details: both partners purified
T1 construct: source: E. coli BL21-CodonPlus(DE3)-RIL, purified (Ni-NTA); not shown: EGFP, C-terminal, kept
T1 sequence (Q96CV9 26-196 E50K): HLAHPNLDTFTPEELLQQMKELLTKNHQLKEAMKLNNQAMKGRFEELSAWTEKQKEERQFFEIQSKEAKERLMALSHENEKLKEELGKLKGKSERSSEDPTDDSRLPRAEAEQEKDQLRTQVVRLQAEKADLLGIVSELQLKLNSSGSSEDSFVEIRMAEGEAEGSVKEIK

[2] = biological target: T2, biotinylated OPTN (26–196 aa) (UniProt Q96CV9 26-196, NH2-GGG(Lys[Biotin])-CONH2 joined at the C-terminal sortase recognition sequence by Sortase 5Y); experiment: BLI; biotinylated OPTN (26–196 aa) immobilised on a streptavidin biosensor (Octet); monobody as analyte at various concentrations; 30 °C; 50 mM Hepes-KOH pH 7.5, 300 mM NaCl, 0.05% Tween 20, 0.1% PEG6000; association 600 s, dissociation 600 s; global fitting; details: both partners purified
T2 construct: also called Biotin-modified OPTN; not shown: GST, N-terminal, cleaved; His6, C-terminal, cleaved; biotin (GGGK-biotin), C-terminal, kept
T2 sequence (Q96CV9 26-196): as the sequence (Q96CV9 26-196 E50K) above, with K25E counted along it

binding result [1]: binds
B1: GST-TBK1 (677–729 aa) (domain or fragment, UniProt Q9UHD2 677-729, looked up)
chain: YPSSNTLVEMTLGMKKLKEEMEGVVKELAENNHILERFGSLTMDGGLRNVDCL
notes: Plasmid pGEX6P1_opt-TBK1 (677–729aa); also called GST-tagged TBK1 (677–729 aa); GST-TBK chimera; source: E. coli BL21-CodonPlus(DE3)-RIL, purified (glutathione Sepharose); not shown: GST, N-terminal, kept

Kd [2]: 4.56 nM
B2: recombinant OPTN monobody clone #3 (His6-tagged) (designed binder)
chain: VSDVPRDLEVVAATPTSLLISWDAPWWWDYGYMYYRITYGETGGNSPVQEFTVPGSKSTATISGLKPGVDYTITVYAWDVAEWVTKVATSWPISINYRT

Kd [2]: 6.19 nM
B3: recombinant OPTN monobody clone #4 (His6-tagged) (designed binder)
chain: VSDVPRDLEVVAATPTSLLISWDAPWFWYFPYYYQEWYYRITYGETGGNSPVQEFTVPGSKSTATISGLKPGVDYTITVYAAMELKGIQEYRNPISINYRT
